# Data from the RNAGym collection of RNA variant scans (doi:10.1073/pnas.2313332121).
# B1: TPR t1 (parent)
# chain: GACCAAUCUGCCCUCAGAGCUCGAGAACAUCUUCGGAUGCAGAGGAGGCAGGCUUCGGUGGCGCGAUAGCGCCAACGUCCUCAACCUCCAAUGCAUCCCACCACAUGAUGAUGCCUGAAGAGCCUUGGUUUUUUG
# Variants of: B1
# Test: polymerase ribozyme fitness, log enrichment relative to wild type (log ratio); higher = more active; in vitro selection for triplet polymerase activity
# Outline: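 Streptavidin-bead capture of gel-excised extended constructs, followed by RT-PCR, closed a single triplicate in vitro selection round. That round began by annealing PCR-built, transcribed mutant libraries of each subunit of a heterodimeric triplet polymerase ribozyme with a biotinylated primer, the partner subunit and triplets, then incubating them frozen at −7 °C. After Illumina sequencing of inputs and outputs, genotypes needed ≥10 input reads and ≥1 read per output. Fitness is the base-2 logarithm of genotype enrichment over wild-type enrichment, using inverse-variance-weighted replicate averages.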
row,Variant,polymerase ribozyme fitness (log ratio)
1,GACCAAUCUGCCCUCAGAGCUCGAGAACAUCUUCGGAUGCAGAGGAGGCAGGCUUCGGUGGCGCGAUAGCGACAACGUCCUCAACCUCCAAUGCAUCCCACCACAUUAUGAUGCCUGAAGAGCCUUGGUUUUUUG [C72A G107U],-3.81
2,GACCAAUCUGCCCUCAGAGCUCGAGAACAUCUUCGGAUGCAGAGGAGGCAGGCUUCGGUGGCGCGAUAGCGACAACGUCCUCAACCUCAAAUGCAUCCCACCACAAGAUGAUGCCUGAAGAGCCUUGGUUUUUUG [C72A C89A U106A],-2.09
3,GACCAAUCUGCCCUCAGAGCUCGAGAACAUCUUCGGAUGCAGAGGAGGCAGGCUUCGGUGGCGCGAUAGCGACAACGUCCUCAACCUCCAAUGCAUCCCACCACAUGAUGAUGCAUGAAGAGCCUUGGUUUUUUG [C72A C115A],-0.416
4,GACCAAUCUGCCCUCAGAGCUCGAGAACAUCUUCGGAUGCAGAGGAGGCAGGCUUCGGUGGCGCGAUAGCGACAACGUCCUCAACCUCCAAUACAUCCCACCACAUGAUGAUGCCUGAAGAGCCUUGGUUUUUUG [C72A G93A],-0.667
5,GACCAAUCUGCCCUCAGAGCUCGAGAACAUCUUCGGAUGCAGAGGAGGCAGGCUUCGGUGGCGCGAUAGCGACAACGUCCUCAAACUCCAAUGCAUCCCACCACAUGAUGAUGCCUGAAGAGCCUUGGUUUUUUG [C72A C85A],0.00801
6,GACCAAUCUGCCCUCAGAGCUCGAGAACAUCUUCGGAUGCAGAGGAGGCAGGCUUCGGUGGCGCGAUAGCGACAACGUCCUCAACCUCCAAUGCAUCACACCACAUGAUGAUGCCUGAAGAGCCUUGGUUUUUUG [C72A C98A],-4.32
7,GACCAAUCUGCCCUCAGAGCUCGAGAACAUCUUCGGAUGCAGAGGAGGCAGGCUUCGGUGGCGCGAUAGCGACAACGUCCUGAACCUCCACUCCAUCCCACCACAUGAUGAUGCCUGAAGAGCCUUGGUUUUUUG [C72A C82G A91C G93C],-3.15
8,GACCAAUCUGCCCUCAGAGCUCGAGAACAUCUUCGGAUGCAGAGGAGGCAGGCUUCGGUGGCGCGAUAGCGACAACGUCCUUAACCUCCAAUGCAUCCCACCACAUGAUGAUGCCUGAAGAGCCUUGGUUUUUUG [C72A C82U],0.305
9,GACCAAUCUGCCCUCAGAGCUCGAGAACAUCUUCGGAUGCAGAGGAGGCAGGCUUCGGUGGCGCGAUAGCGACAACGUCCUAAACCUCCAAUGCAUCCCACCACAUGAUGAUGCCUGAAGAGCCUUGGUUUUUUG [C72A C82A],0.281
10,GACCAAUCUGCCCUCAGAGCUCGAGAACAUCUUCGGAUGCAGAGGAGGCAGGCUUCGGUGGCGCGAUAGCGACAACGUCCUCAACCUCCAAUGCAUCCCACCACAUAAUGAUGCCUGAAGAGCGUUGGUUUUUUG [C72A G107A C124G],-5.06
11,GACCAAUCUGCCCUCAGAGCUCGAGAACAUCUUCGGAUGCAGAGGAGGCAGGCUUCGGUGGCGCGAUAGCUCCAACGUCCUCAACCUCCAAUGCAUCCCACCACAUGAUGAUGCCUGAAGAGCCUUGGAUUUUUG [G71U U129A],-1.8
12,GACCAAUCUGCCCUCAGAGCUCGAGAACAUCUUCGGAUGCAGAGGAGGCAGGCUUCGGUGGCGCGAUAGCUCCAACGUCCUCAACCUCCAAUGCAUCCCACCACAUGAUGAUGCCUGAAGAGCCUUGGCUUUUUG [G71U U129C],-0.505
13,GACCAAUCUGCCCUCAGAGCUCGAGAACAUCUUCGGAUGCAGAGGAGGCAGGCUUCGGUGGCGCGAUAGCGACAACGUCCUCAACCUCCAAUACAUCUCACCACAUGAUGAUGCCUGAAGAGCCGUGGUUUUUUG [C72A G93A C98U U125G],-1.8
14,GACCAAUCUGCCCUCAGAGCUCGAGAACAUCUUCGGAUGCAGAGGAGGCAGGCUUCGGUGGCGCGAUAGCGACAACGUCCUCAACCUCCAAUGCAUCCCACCACAUGAUGAUGACUGAAGAACCUUGGUUUUUUG [C72A C114A G122A],-2.11
15,GACCAAUCUGCCCUCAGAGCUCGAGAACAUCUUCGGAUGCAGAGGAGGCAGGCUUCGGUGGCGCGAUAGCGACAACGUCCUCAACCUCCAAUGCAUCCCACCACAUGUUGAUGCCUGAAGAGCCUUGGUUUUUUG [C72A A108U],-5.64
16,GACCAAUCUGCCCUCAGAGCUCGAGAACAUCUUCGGAUGCAGAGGAGGCAGGCUUCGGUGGCGCGAUAGCGACAACGUCCUCUACCUCCAAUGCAUCCCACCACAUGAUGAUGCCUGAAGAGCCUUGUUUUUUUG [C72A A83U G128U],-2.86
17,GACCAAUCUGCCCUCAGAGCUCGAGAACAUCUUCGGAUGCAGAGGAGGCAGGCUUCGGUGGCGCGAUAGCGACAACGUCCUGAACCUCCAAUGCAUCCCACCACAUGAUGAUGCAUGAAGAGACUUGGUUUUUUG [C72A C82G C115A C123A],-1.36
18,GACCAAUCUGCCCUCAGAGCUCGAGAACAUCUUCGGAUGCAGAGGAGGCAGGCUUCGGUGGCGCGAUAGCGACAACGUCCUCAACCUCCAAUGCAUCCCACCACAUGAUGAUGCCUGAAGAGCCUUGGUUUUUUC [C72A G135C],-0.133
19,GACCAAUCUGCCCUCAGAGCUCGAGAACAUCUUCGGAUGCAGAGGAGGCAGGCUUCGGUGGCGCGAUAGCGACAACGUCCUCAACCUCCAAUGCGUGCCACCAAAUGAUGAUGCCUGUAGAGCCUUCGUUUUUUG [C72A A95G C97G C104A A118U G127C],-5.66
20,GACCAAUCUGCCCUCAGAGCUCGAGAACAUCUUCGGAUGCAGAGGAGGCAGGCUUCGGUGGCGCGAUAGCGACAACGUCCUAAACCUCCAAUGCAUGCCACCACAUGAUGAUGGCUGAAGAGCCUUGGUUUUUUG [C72A C82A C97G C114G],-5.93
21,GACCAAUCUGCCCUCAGAGCUCGAGAACAUCUUCGGAUGCAGAGGAGGCAGGCUUCGGUGGCGCGAUAGCGACAACGUCCUCAACCUCCAAUGCAACCCACCACAUGAUGAUGCCUGAAGAGCCUUGGUUUUUUG [C72A U96A],-1.74

row,Variant,polymerase ribozyme fitness (log ratio)
1,GACCAAUCUGCCCUCAGAGCUCGAGAACAUCUUCGGAUGCAGAGGAGGCAGGCUUCGGUGGCGCGAUAGCGACAACGUCCCAAACCUCCAAUGCAUCCCACCACAUGAUGAUGCCUGAAGAGCCUUGGUUUUUUG [C72A U81C C82A],-1.12
2,GACCAAUCUGCCCUCAGAGCUCGAGAACAUCUUCGGAUGCAGAGGAGGCAGGCUUCGGUGGCGCGAUAGCGACAACGUCCUCAACCUCCUAUGCAUCCCAACACAUGAUGAUGCCUGAAGAACCUUGGUUUUUUG [C72A A90U C101A G122A],-3.86
3,GACCAAUCUGCCCUCAGAGCUCGAGAACAUCUUCGGAUGCAGAGGAGGCAGGCUUCGGUGGCGCGAUAGCGACAACGUCCUCAACCUCCAAUGCAUCCUACCACAUGAGGAUGCCUGAAGAGCCUUGGUUUUUUG [C72A C99U U109G],-6.16
4,GACCAAUCUGCCCUCAGAGCUCGAGAACAUCUUCGGAUGCAGAGGAGGCAGGCUUCGGUGGCGCGAUAGCGACACCGUCCUCAACCGCCAAUGCAUCCCACAACAUGAUGAUGCCAGAAGAGCUUUGGUAUUUUG [C72A A75C U87G C102A U116A C124U U130A],-5.54
5,GACCAAUCUGCCCUCAGAGCUCGAGAACAUCUUCGGAUGCAGAGGAGGCAGGCUUCGGUGGCGCGAUAGCGACAACGUCCUCAACCUCCAAUGCAUCCCACCACAUGAUGAUGGCUGAAGAGCCUUGGUUUUUUG [C72A C114G],-2.31
6,GACCAAUCUGCCCUCAGAGCUCGAGAACAUCUUCGGAUGCAGAGGAGGCAGGCUUCGGUGGCGCGAUAGCGACAACGUCCUCAACCUCCAAUGCAUCCCACCACAUGAUGAUGCCUUAAGAGCCUUGGUUUUUUG [C72A G117U],-2.32
7,GACCAAUCUGCCCUCAGAGCUCGAGAACAUCUUCGGAUGCAGAGGAGGCAGGCUUCGGUGGCGCGAUAGCGACAACGUCCUCAACCUCCAAUGCAUCCCACCACAUGAUGAUGCCUCAAGAGCCUUGGUUUUUUG [C72A G117C],-4.09
8,GACCAAUCUGCCCUCAGAGCUCGAGAACAUCUUCGGAUGCAGAGGAGGCAGGCUUCGGUGGCGCGAUAGCGACAACGUCCUCAACCUCCAAUCCAUCCCACAACAAGAUAAUGCCUGAAGAGCCAUAGUUUUUUG [C72A G93C C102A U106A G110A U125A G127A],-6.51
9,GACCAAUCUGCCCUCAGAGCUCGAGAACAUCUUCGGAUGCAGAGGAGGCAGGCUUCGGUGGCGCGAUAGCGACAACGUCCUCAACCUCCAAUGCAUCCCACCACAUGAUAAUGCAUGAAGAGCCUUGGUUUUUUG [C72A G110A C115A],-2.51
10,GACCAAUCUGCCCUCAGAGCUCGAGAACAUCUUCGGAUGCAGAGGAGGCAGGCUUCGGUGGCGCGAUAGCGACAACGUCCUCAACCUUCAAUGCAUCCCACCACAUGAUGAUGCCUGAAGAGCCUUGGUUUUUUG [C72A C88U],-0.32
11,GACCAAUCUGCCCUCAGAGCUCGAGAACAUCUUCGGAUGCAGAGGAGGCAGGCUUCGGUGGCGCGAUAGCGACAACGUCCUCAACCUCCAAAGCAUCCCACCACAUGAUGAUGCCUGAGGAGCCUUCGUUUUUUG [C72A U92A A119G G127C],-1.04
12,GACCAAUCUGCCCUCAGAGCUCGAGAACAUCUUCGGAUGCAGAGGAGGCAGGCUUCGGUGGCGCGAUAGCUCCAACGUCCUCAACCUCCAAUGCAUCCCACCACAUGAUGAUGCCUGAAGAGCCUUGGUAUUUUG [G71U U130A],0.232
13,GACCAAUCUGCCCUCAGAGCUCGAGAACAUCUUCGGAUGCAGAGGAGGCAGGCUUCGGUGGCGCGAUAGCGACAACGUACUCAACCUCCAAUGAAUCCCACCACAUGAUGAUGCCUGAAGAGCCUUCGUUUUUUG [C72A C79A C94A G127C],-2.85
14,GACCAAUCUGCCCUCAGAGCUCGAGAACAUCUUCGGAUGCAGAGGAGGCAGGCUUCGGUGGCGCGAUAGCGACAACGUCCUCAACCUCCAAUGCAUCCCAACACAUGAUGAUGCCUGAAGAGCCUUGGUUUUUUG [C72A C101A],-1.15
15,GACCAAUCUGCCCUCAGAGCUCGAGAACAUCUUCGGAUGCAGAGGAGGCAGGCUUCGGUGGCGCGAUAGCGACAACGUCCUCAACCUCCAAUGCAUUCCACCACAUGAUGAUGCCUGAAGAGCCUUGGUUUUUUG [C72A C97U],0.226
16,GACCAAUCUGCCCUCAGAGCUCGAGAACAUCUUCGGAUGCAGAGGAGGCAGGCUUCGGUGGCGCGAUAGCGACAACGACCUCAACCUCCAAUGCAUCCCACCACAUGAUGAUGCCUGAAGAGCCUUGGUUUUUUG [C72A U78A],0.142
17,GACCAAUCUGCCCUCAGAGCUCGAGAACAUCUUCGGAUGCAGAGGAGGCAGGCUUCGGUGGCGCGAUAGCGACAACGCCCUCAACCUCCAAUGCAUCCCACCACAUGAUGAUGCCUGAAGAGCCUUGGUUUUUUG [C72A U78C],-0.145
18,GACCAAUCUGCCCUCAGAGCUCGAGAACAUCUUCGGAUGCAGAGGAGGCAGGCUUCGGUGGCGCGAUAGCGACAACGUCCUCAACCUCCAAAGCAUCCCACCACAUGAUGAUGCCUGAAGAGCCUUGGUUUUUUG [C72A U92A],-2.67
19,GACCAAUCUGCCCUCAGAGCUCGAGAACAUCUUCGGAUGCAGAGGAGGCAGGCUUCGGUGGCGCGAUAGCUCCAACGUCCUCAACCUCCAAUGCAUCCCACCACAUGAUGAUGCCUGAAGAGCCUUGGUUUAUUG [G71U U132A],0.382
20,GACCAAUCUGCCCUCAGAGCUCGAGAACAUCUUCGGAUGCAGAGGAGGCAGGCUUCGGUGGCGCGAUAGCUCCAACGUCCUCAACCUCCAAUGCAUCCCACCACAUGAUGAUGCCUGAAGAGCCAUGGUUUUUUG [G71U U125A],-1.21
21,GACCAAUCUGCCCUCAGAGCUCGAGAACAUCUUCGGAUGCAGAGGAGGCAGGCUUCGGUGGCGCGAUAGCGACAACGUCCUCAACCUCCAAUGCAUCCCACCACAUGAUGAUGCCUGAAGAGGCUUGGUUUUUUG [C72A C123G],1.56
